B1: AMOTL2 T28: AMOTL2, T28 to alanine (protein, UniProt Q9Y2J4 1-779, looked up, variant T28A)
Angiomotin-like protein 2: MRTLEDSSGTVLHRLIQEQLRYGNLTEARTLLAIQQQALRGGAGTGGTGSPQASLEILAPEDSQVLQQATRQEPQGQEHQGGENHLAENTLYRLCPQPSKGEELPTYEEAKAHSQYYAAQQAGTRPHAGDRDPRGAPGGSRRQDEALRELRHGHVRSLSERLLQLSLERNGARAPSHMSSSHSFPQLARNQQGPPLRGPPAEGPESRGPPPQYPHVVLAHETTTAVTDPRYRARGSPHFQHAEVRILQAQVPPVFLQQQQQYQYLQQSQEHPPPPHPAALGHGPLSSLSPPAVEGPVSAQASSATSGSAHLAQMEAVLRENARLQRDNERLQRELESSAEKAGRIEKLESEIQRLSEAHESLTRASSKREALEKTMRNKMDSEMRRLQDFNRDLRERLESANRRLASKTQEAQAGSQDMVAKLLAQSYEQQQEQEKLEREMALLRGAIEDQRRRAELLEQALGNAQGRAARAEEELRKKQAYVEKVERLQQALGQLQAACEKREQLELRLRTRLEQELKALRAQQRQAGAPGGSSGSGGSPELSALRLSEQLREKEEQILALEADMTKWEQKYLEERAMRQFAMDAAATAAAQRDTTLIRHSPQPSPSSSFNEGLLTGGHRHQEMESRLKVLHAQILEKDAVIKVLQQRSRRDPGKAIQGSLRPAKSVPSVFAAAAAGTQGWQGLSSSERQTADAPARLTTDRAPTEEPVVTAPPAAHAKHGSRDGSTQTEGPPDSTSTCLPPEPDSLLGCSSSQRAASLDSVATSRVQDLSDMVEILI
B2: AMOTL2 L31: AMOTL2, L31 to alanine (protein, UniProt Q9Y2J4 1-779, looked up, variant L31A)
Angiomotin-like protein 2: MRTLEDSSGTVLHRLIQEQLRYGNLTETRTALAIQQQALRGGAGTGGTGSPQASLEILAPEDSQVLQQATRQEPQGQEHQGGENHLAENTLYRLCPQPSKGEELPTYEEAKAHSQYYAAQQAGTRPHAGDRDPRGAPGGSRRQDEALRELRHGHVRSLSERLLQLSLERNGARAPSHMSSSHSFPQLARNQQGPPLRGPPAEGPESRGPPPQYPHVVLAHETTTAVTDPRYRARGSPHFQHAEVRILQAQVPPVFLQQQQQYQYLQQSQEHPPPPHPAALGHGPLSSLSPPAVEGPVSAQASSATSGSAHLAQMEAVLRENARLQRDNERLQRELESSAEKAGRIEKLESEIQRLSEAHESLTRASSKREALEKTMRNKMDSEMRRLQDFNRDLRERLESANRRLASKTQEAQAGSQDMVAKLLAQSYEQQQEQEKLEREMALLRGAIEDQRRRAELLEQALGNAQGRAARAEEELRKKQAYVEKVERLQQALGQLQAACEKREQLELRLRTRLEQELKALRAQQRQAGAPGGSSGSGGSPELSALRLSEQLREKEEQILALEADMTKWEQKYLEERAMRQFAMDAAATAAAQRDTTLIRHSPQPSPSSSFNEGLLTGGHRHQEMESRLKVLHAQILEKDAVIKVLQQRSRRDPGKAIQGSLRPAKSVPSVFAAAAAGTQGWQGLSSSERQTADAPARLTTDRAPTEEPVVTAPPAAHAKHGSRDGSTQTEGPPDSTSTCLPPEPDSLLGCSSSQRAASLDSVATSRVQDLSDMVEILI
B3: AMOTL2 L32: AMOTL2, L32 to alanine (protein, UniProt Q9Y2J4 1-779, looked up, variant L32A)
Angiomotin-like protein 2: MRTLEDSSGTVLHRLIQEQLRYGNLTETRTLAAIQQQALRGGAGTGGTGSPQASLEILAPEDSQVLQQATRQEPQGQEHQGGENHLAENTLYRLCPQPSKGEELPTYEEAKAHSQYYAAQQAGTRPHAGDRDPRGAPGGSRRQDEALRELRHGHVRSLSERLLQLSLERNGARAPSHMSSSHSFPQLARNQQGPPLRGPPAEGPESRGPPPQYPHVVLAHETTTAVTDPRYRARGSPHFQHAEVRILQAQVPPVFLQQQQQYQYLQQSQEHPPPPHPAALGHGPLSSLSPPAVEGPVSAQASSATSGSAHLAQMEAVLRENARLQRDNERLQRELESSAEKAGRIEKLESEIQRLSEAHESLTRASSKREALEKTMRNKMDSEMRRLQDFNRDLRERLESANRRLASKTQEAQAGSQDMVAKLLAQSYEQQQEQEKLEREMALLRGAIEDQRRRAELLEQALGNAQGRAARAEEELRKKQAYVEKVERLQQALGQLQAACEKREQLELRLRTRLEQELKALRAQQRQAGAPGGSSGSGGSPELSALRLSEQLREKEEQILALEADMTKWEQKYLEERAMRQFAMDAAATAAAQRDTTLIRHSPQPSPSSSFNEGLLTGGHRHQEMESRLKVLHAQILEKDAVIKVLQQRSRRDPGKAIQGSLRPAKSVPSVFAAAAAGTQGWQGLSSSERQTADAPARLTTDRAPTEEPVVTAPPAAHAKHGSRDGSTQTEGPPDSTSTCLPPEPDSLLGCSSSQRAASLDSVATSRVQDLSDMVEILI
B4: AMOTL2 I34: AMOTL2, I34 to alanine (protein, UniProt Q9Y2J4 1-779, looked up, variant I34A)
Angiomotin-like protein 2: MRTLEDSSGTVLHRLIQEQLRYGNLTETRTLLAAQQQALRGGAGTGGTGSPQASLEILAPEDSQVLQQATRQEPQGQEHQGGENHLAENTLYRLCPQPSKGEELPTYEEAKAHSQYYAAQQAGTRPHAGDRDPRGAPGGSRRQDEALRELRHGHVRSLSERLLQLSLERNGARAPSHMSSSHSFPQLARNQQGPPLRGPPAEGPESRGPPPQYPHVVLAHETTTAVTDPRYRARGSPHFQHAEVRILQAQVPPVFLQQQQQYQYLQQSQEHPPPPHPAALGHGPLSSLSPPAVEGPVSAQASSATSGSAHLAQMEAVLRENARLQRDNERLQRELESSAEKAGRIEKLESEIQRLSEAHESLTRASSKREALEKTMRNKMDSEMRRLQDFNRDLRERLESANRRLASKTQEAQAGSQDMVAKLLAQSYEQQQEQEKLEREMALLRGAIEDQRRRAELLEQALGNAQGRAARAEEELRKKQAYVEKVERLQQALGQLQAACEKREQLELRLRTRLEQELKALRAQQRQAGAPGGSSGSGGSPELSALRLSEQLREKEEQILALEADMTKWEQKYLEERAMRQFAMDAAATAAAQRDTTLIRHSPQPSPSSSFNEGLLTGGHRHQEMESRLKVLHAQILEKDAVIKVLQQRSRRDPGKAIQGSLRPAKSVPSVFAAAAAGTQGWQGLSSSERQTADAPARLTTDRAPTEEPVVTAPPAAHAKHGSRDGSTQTEGPPDSTSTCLPPEPDSLLGCSSSQRAASLDSVATSRVQDLSDMVEILI
B5: AMOTL2 R29: AMOTL2, R29 to alanine (protein, UniProt Q9Y2J4 1-779, looked up, variant R29A)
Angiomotin-like protein 2: MRTLEDSSGTVLHRLIQEQLRYGNLTETATLLAIQQQALRGGAGTGGTGSPQASLEILAPEDSQVLQQATRQEPQGQEHQGGENHLAENTLYRLCPQPSKGEELPTYEEAKAHSQYYAAQQAGTRPHAGDRDPRGAPGGSRRQDEALRELRHGHVRSLSERLLQLSLERNGARAPSHMSSSHSFPQLARNQQGPPLRGPPAEGPESRGPPPQYPHVVLAHETTTAVTDPRYRARGSPHFQHAEVRILQAQVPPVFLQQQQQYQYLQQSQEHPPPPHPAALGHGPLSSLSPPAVEGPVSAQASSATSGSAHLAQMEAVLRENARLQRDNERLQRELESSAEKAGRIEKLESEIQRLSEAHESLTRASSKREALEKTMRNKMDSEMRRLQDFNRDLRERLESANRRLASKTQEAQAGSQDMVAKLLAQSYEQQQEQEKLEREMALLRGAIEDQRRRAELLEQALGNAQGRAARAEEELRKKQAYVEKVERLQQALGQLQAACEKREQLELRLRTRLEQELKALRAQQRQAGAPGGSSGSGGSPELSALRLSEQLREKEEQILALEADMTKWEQKYLEERAMRQFAMDAAATAAAQRDTTLIRHSPQPSPSSSFNEGLLTGGHRHQEMESRLKVLHAQILEKDAVIKVLQQRSRRDPGKAIQGSLRPAKSVPSVFAAAAAGTQGWQGLSSSERQTADAPARLTTDRAPTEEPVVTAPPAAHAKHGSRDGSTQTEGPPDSTSTCLPPEPDSLLGCSSSQRAASLDSVATSRVQDLSDMVEILI
B6: AMOTL2 T30: AMOTL2, T30 to alanine (protein, UniProt Q9Y2J4 1-779, looked up, variant T30A)
Angiomotin-like protein 2: MRTLEDSSGTVLHRLIQEQLRYGNLTETRALLAIQQQALRGGAGTGGTGSPQASLEILAPEDSQVLQQATRQEPQGQEHQGGENHLAENTLYRLCPQPSKGEELPTYEEAKAHSQYYAAQQAGTRPHAGDRDPRGAPGGSRRQDEALRELRHGHVRSLSERLLQLSLERNGARAPSHMSSSHSFPQLARNQQGPPLRGPPAEGPESRGPPPQYPHVVLAHETTTAVTDPRYRARGSPHFQHAEVRILQAQVPPVFLQQQQQYQYLQQSQEHPPPPHPAALGHGPLSSLSPPAVEGPVSAQASSATSGSAHLAQMEAVLRENARLQRDNERLQRELESSAEKAGRIEKLESEIQRLSEAHESLTRASSKREALEKTMRNKMDSEMRRLQDFNRDLRERLESANRRLASKTQEAQAGSQDMVAKLLAQSYEQQQEQEKLEREMALLRGAIEDQRRRAELLEQALGNAQGRAARAEEELRKKQAYVEKVERLQQALGQLQAACEKREQLELRLRTRLEQELKALRAQQRQAGAPGGSSGSGGSPELSALRLSEQLREKEEQILALEADMTKWEQKYLEERAMRQFAMDAAATAAAQRDTTLIRHSPQPSPSSSFNEGLLTGGHRHQEMESRLKVLHAQILEKDAVIKVLQQRSRRDPGKAIQGSLRPAKSVPSVFAAAAAGTQGWQGLSSSERQTADAPARLTTDRAPTEEPVVTAPPAAHAKHGSRDGSTQTEGPPDSTSTCLPPEPDSLLGCSSSQRAASLDSVATSRVQDLSDMVEILI
B7: AMOTL2 Q35: AMOTL2, Q35 to alanine (protein, UniProt Q9Y2J4 1-779, looked up, variant Q35A)
Angiomotin-like protein 2: MRTLEDSSGTVLHRLIQEQLRYGNLTETRTLLAIAQQALRGGAGTGGTGSPQASLEILAPEDSQVLQQATRQEPQGQEHQGGENHLAENTLYRLCPQPSKGEELPTYEEAKAHSQYYAAQQAGTRPHAGDRDPRGAPGGSRRQDEALRELRHGHVRSLSERLLQLSLERNGARAPSHMSSSHSFPQLARNQQGPPLRGPPAEGPESRGPPPQYPHVVLAHETTTAVTDPRYRARGSPHFQHAEVRILQAQVPPVFLQQQQQYQYLQQSQEHPPPPHPAALGHGPLSSLSPPAVEGPVSAQASSATSGSAHLAQMEAVLRENARLQRDNERLQRELESSAEKAGRIEKLESEIQRLSEAHESLTRASSKREALEKTMRNKMDSEMRRLQDFNRDLRERLESANRRLASKTQEAQAGSQDMVAKLLAQSYEQQQEQEKLEREMALLRGAIEDQRRRAELLEQALGNAQGRAARAEEELRKKQAYVEKVERLQQALGQLQAACEKREQLELRLRTRLEQELKALRAQQRQAGAPGGSSGSGGSPELSALRLSEQLREKEEQILALEADMTKWEQKYLEERAMRQFAMDAAATAAAQRDTTLIRHSPQPSPSSSFNEGLLTGGHRHQEMESRLKVLHAQILEKDAVIKVLQQRSRRDPGKAIQGSLRPAKSVPSVFAAAAAGTQGWQGLSSSERQTADAPARLTTDRAPTEEPVVTAPPAAHAKHGSRDGSTQTEGPPDSTSTCLPPEPDSLLGCSSSQRAASLDSVATSRVQDLSDMVEILI

System: PP2A-B55α
Test: Single alanine mutational scan, YFP-tagged interactors immunoprecipitated from HeLa cells, Western blot
Assay type: binding, human
Conditions: single alanine mutant of YFP-tagged AMOTL2

**Q.** How did the Experimental % binding turn out when B1 was run?
**A.** 4%

**Q.** Which Experimental % binding does the source give for B2 here?
**A.** 115%

**Q.** For B3, which Experimental % binding is on record?
**A.** 118%

**Q.** Which Experimental % binding does the source give for B4 here?
**A.** 15%

**Q.** For B5, which Experimental % binding is on record?
**A.** 4%

**Q.** With B6 as the molecule, how does the Experimental % binding read?
**A.** 85%

**Q.** With B7 as the molecule, how does the Experimental % binding read?
**A.** 61%
